From the Immune Epitope Database (IEDB)

Experiments:
HLA-A*24:02 = assay: IEDB peptide-MHC binding, purified MHC/competitive/fluorescence; ≥ and ≤ were set here for values at or beyond the usual limits of such assays
HLA-B*07:02 = assay: as above
HLA-B*08:01 = assay: IEDB peptide-MHC binding, purified MHC/direct/fluorescence; filed as Kd, often an IC50 or EC50 that approximates it; ≥ and ≤ were set here for values at or beyond the usual limits of such assays
HLA-B*08:02 = assay: as above
HLA-A*02:01 [1] = assay: IEDB peptide-MHC binding, purified MHC/competitive/fluorescence; filed as Kd, often an IC50 or EC50 that approximates it; ≥ and ≤ were set here for values at or beyond the usual limits of such assays
HLA-A*01:01 = assay: IEDB peptide-MHC binding, purified MHC/direct/fluorescence; filed as Kd, often an IC50 or EC50 that approximates it; ≥ and ≤ were set here for values at or beyond the usual limits of such assays; conditions: source organism: West Nile virus
HLA-A*02:01 [2] = assay: as above; conditions: source organism: West Nile virus
HLA-A*03:01 [3] = assay: as above
HLA-A*11:01 [4] = assay: as above; conditions: source organism: West Nile virus
HLA-A*29:02 = assay: as above
HLA-A*31:01 = assay: as above; conditions: source organism: West Nile virus
HLA-A*69:01 [5] = assay: as above; conditions: source organism: West Nile virus
HLA-B*15:01 [6] = assay: as above; conditions: source organism: West Nile virus
HLA-B*18:01 [7] = assay: as above; conditions: source organism: West Nile virus
HLA-B*27:05 = assay: as above; conditions: source organism: West Nile virus
HLA-B*40:01 = assay: as above; conditions: source organism: West Nile virus
HLA-B*44:02 = assay: as above; conditions: source organism: West Nile virus
HLA-B*46:01 [8] = assay: as above; conditions: source organism: West Nile virus
HLA-B*51:01 [9] = assay: as above; conditions: source organism: West Nile virus
HLA-B*58:01 = assay: as above; conditions: source organism: West Nile virus
HLA-A*03:01 [10] = assay: IEDB peptide-MHC binding, purified MHC/competitive/fluorescence; ≥ and ≤ were set here for values at or beyond the usual limits of such assays; conditions: source organism: Vaccinia virus Copenhagen
HLA-A*11:01 [11] = assay: as above; conditions: source organism: Vaccinia virus Copenhagen
HLA-A*02:03 = assay: IEDB peptide-MHC binding, purified MHC/direct/fluorescence; filed as Kd, often an IC50 or EC50 that approximates it; ≥ and ≤ were set here for values at or beyond the usual limits of such assays
HLA-A*02:11 = assay: as above
HLA-A*02:12 = assay: as above
HLA-A*02:16 = assay: as above
HLA-A*02:19 = assay: as above
HLA-A*24:03 = assay: as above
HLA-A*68:02 = assay: as above
HLA-A*26:01 = assay: IEDB peptide-MHC binding, purified MHC/competitive/fluorescence; filed as Kd, often an IC50 or EC50 that approximates it; ≥ and ≤ were set here for values at or beyond the usual limits of such assays; conditions: source organism: Zaire ebolavirus
HLA-A*69:01 [12] = assay: as above; conditions: source organism: Zaire ebolavirus
HLA-B*15:01 [13] = assay: as above; conditions: source organism: Zaire ebolavirus
HLA-B*15:17 = assay: as above; conditions: source organism: Zaire ebolavirus
HLA-B*18:01 [14] = assay: as above; conditions: source organism: Zaire ebolavirus
HLA-B*27:03 = assay: as above; conditions: source organism: Zaire ebolavirus
HLA-B*39:01 = assay: as above; conditions: source organism: Zaire ebolavirus
HLA-B*46:01 [15] = assay: as above; conditions: source organism: Zaire ebolavirus
HLA-B*51:01 [16] = assay: as above; conditions: source organism: Zaire ebolavirus
HLA-B*57:01 = assay: as above; conditions: source organism: Zaire ebolavirus
HLA-A*02:01 [17] = assay: IEDB peptide-MHC binding, purified MHC/competitive/fluorescence; ≥ and ≤ were set here for values at or beyond the usual limits of such assays
HLA-B*15:01 [18] = assay: as above
HLA-A*23:01 = assay: IEDB peptide-MHC binding, purified MHC/direct/fluorescence; filed as Kd, often an IC50 or EC50 that approximates it; ≥ and ≤ were set here for values at or beyond the usual limits of such assays; conditions: source organism: Entamoeba histolytica HM-1:IMSS
[19] = source organism: Zaire ebolavirus
[20] = source organism: Giardia lamblia ATCC 50803
[21] = source organism: West Nile virus
[22] = source organism: Vaccinia virus Copenhagen
[23] = source organism: Sudan ebolavirus
[24] = source organism: Ebola virus Yambio0403

Work on AAPDGIRGF yielded an IC50 (HLA-A*24:02; [19]) of 69.8 µM and an IC50 (HLA-B*07:02; [19]) of 12.2 µM.
With ELRKRNEAL the Kd (HLA-B*08:01; [20]) was 0.042 µM, the Kd (HLA-B*08:02; [20]) was 2.82 µM and the Kd (HLA-A*02:01 [1]; [20]) was no less than 20 µM.
GPRGALSLL gave an IC50 (HLA-B*07:02; source organism: Homo sapiens) of 0.166 µM.
HSRRSRRSL showed a Kd (HLA-A*01:01) of no less than 20 µM, a Kd (HLA-A*02:01 [2]) of no less than 20 µM and a Kd (HLA-A*03:01 [3]; [21]) of no less than 20 µM. The Kd (HLA-A*11:01 [4]) was no less than 20 µM, the Kd (HLA-A*29:02; [21]) was no less than 20 µM and the Kd (HLA-A*31:01) was no less than 20 µM. The Kd (HLA-A*69:01 [5]) was no less than 20 µM, the Kd (HLA-B*08:01; [21]) was 0.211 µM and the Kd (HLA-B*08:02; source organism: West Nile virus strain PTRoxo) was 5.67 µM. The Kd (HLA-B*15:01 [6]) was no less than 20 µM, the Kd (HLA-B*18:01 [7]) was no less than 20 µM and the Kd (HLA-B*27:05) was no less than 20 µM. For the same sequence, the Kd (HLA-B*40:01) was no less than 20 µM, the Kd (HLA-B*44:02) was no less than 20 µM and the Kd (HLA-B*46:01 [8]) was no less than 20 µM. For the same sequence, the Kd (HLA-B*51:01 [9]) was no less than 20 µM and the Kd (HLA-B*58:01) was no less than 20 µM.
IPYFGPAAE showed an IC50 (HLA-B*07:02; [19]) of no less than 135 µM.
KITFALKKL gave an IC50 (HLA-A*03:01 [10]) of 11.3 µM, an IC50 (HLA-A*11:01 [11]) of 19.3 µM and an IC50 (HLA-A*24:02; [22]) of 34.8 µM. For the same sequence, the IC50 (HLA-B*07:02; [22]) was 61.2 µM.
Sequence KPGPDNSTH has an IC50 (HLA-B*07:02; [19]) of no less than 191 µM.
For LPKTSGHYD, the IC50 (HLA-B*07:02; [19]) was no less than 182 µM.
For MLKRRGFHL, the Kd (HLA-B*08:02; source organism: Salmonella enterica subsp. enterica serovar Typhi str. CT18) was 0.102 µM.
Sequence NYNGLLSSI has a Kd (HLA-A*02:03; [19]) of no less than 20 µM, a Kd (HLA-A*02:11; [19]) of no less than 20 µM and a Kd (HLA-A*02:12; [19]) of no less than 20 µM. It also gave a Kd (HLA-A*02:16; [19]) of no less than 20 µM, a Kd (HLA-A*02:19; [19]) of no less than 20 µM and a Kd (HLA-A*03:01 [3]; [19]) of no less than 20 µM. It also gave a Kd (HLA-A*24:03; source organism: Ebola virus - Gabon (1994-1997)) of 0.0003 µM, a Kd (HLA-A*68:02; [19]) of no less than 20 µM and a Kd (HLA-A*02:01 [1]; [19]) of no less than 20 µM. It also gave a Kd (HLA-A*26:01) of no less than 20 µM, a Kd (HLA-A*69:01 [12]) of no less than 20 µM and a Kd (HLA-B*15:01 [13]) of no less than 20 µM. The Kd (HLA-B*15:17) was no less than 20 µM, the Kd (HLA-B*18:01 [14]) was no less than 20 µM and the Kd (HLA-B*27:03) was no less than 20 µM. It also gave a Kd (HLA-B*39:01) of no less than 20 µM, a Kd (HLA-B*46:01 [15]) of no less than 20 µM and a Kd (HLA-B*51:01 [16]) of no less than 20 µM. It also gave a Kd (HLA-B*57:01) of no less than 20 µM.
QFLSFASLF was tested, and the IC50 (HLA-A*02:01 [17]; [19]) was no less than 88.1 µM, the IC50 (HLA-A*24:02; [19]) was 0.0128 µM and the IC50 (HLA-B*15:01 [18]; [19]) was 9.93 µM. It also gave a Kd (HLA-A*02:03; [19]) of no less than 20 µM, a Kd (HLA-A*02:11; [19]) of no less than 20 µM and a Kd (HLA-A*02:12; [19]) of no less than 20 µM. For the same sequence, the Kd (HLA-A*02:16; [19]) was no less than 20 µM, the Kd (HLA-A*02:19; [19]) was no less than 20 µM and the Kd (HLA-A*03:01 [3]; [19]) was no less than 20 µM. For the same sequence, the Kd (HLA-A*24:03; source organism: Reston ebolavirus) was 0.0027 µM, the Kd (HLA-A*68:02; [19]) was no less than 20 µM and the Kd (HLA-A*02:01 [1]; [19]) was no less than 20 µM. For the same sequence, the Kd (HLA-A*26:01) was no less than 20 µM, the Kd (HLA-A*69:01 [12]) was no less than 20 µM and the Kd (HLA-B*15:17) was no less than 20 µM. For the same sequence, the Kd (HLA-B*18:01 [14]) was no less than 20 µM, the Kd (HLA-B*27:03) was no less than 20 µM and the Kd (HLA-B*39:01) was no less than 20 µM. The Kd (HLA-B*46:01 [15]) was no less than 20 µM, the Kd (HLA-B*51:01 [16]) was no less than 20 µM and the Kd (HLA-B*57:01) was no less than 20 µM.
QLKSVGLNL showed an IC50 (HLA-A*02:01 [17]; [23]) of 7.56 µM, an IC50 (HLA-A*24:02; [23]) of 24.5 µM and an IC50 (HLA-B*07:02; [23]) of 6.4 µM. The IC50 (HLA-B*15:01 [18]; [23]) was 14.4 µM.
With QYIHLLCNK the Kd (HLA-A*23:01) was 0.2 µM and the Kd (HLA-A*24:03; source organism: Entamoeba histolytica HM-1:IMSS) was 1.11 µM.
With RYEFTAPFI the Kd (HLA-A*02:03; [24]) was no less than 20 µM, the Kd (HLA-A*02:11; [24]) was no less than 20 µM and the Kd (HLA-A*02:12; [24]) was no less than 20 µM. The Kd (HLA-A*02:16; [24]) was no less than 20 µM, the Kd (HLA-A*02:19; [24]) was no less than 20 µM and the Kd (HLA-A*03:01 [3]; [24]) was no less than 20 µM. For the same sequence, the Kd (HLA-A*24:03; [19]) was 0.0002 µM, the Kd (HLA-A*29:02; [24]) was no less than 20 µM and the Kd (HLA-A*68:02; [24]) was no less than 20 µM. It also gave a Kd (HLA-A*02:01 [1]; [19]) of no less than 20 µM, a Kd (HLA-A*26:01) of no less than 20 µM and a Kd (HLA-A*69:01 [12]) of no less than 20 µM. It also gave a Kd (HLA-B*15:01 [13]) of no less than 20 µM, a Kd (HLA-B*15:17) of no less than 20 µM and a Kd (HLA-B*18:01 [14]) of no less than 20 µM. The Kd (HLA-B*27:03) was no less than 20 µM, the Kd (HLA-B*39:01) was no less than 20 µM and the Kd (HLA-B*46:01 [15]) was no less than 20 µM. The Kd (HLA-B*51:01 [16]) was no less than 20 µM and the Kd (HLA-B*57:01) was no less than 20 µM.
In the case of TPTVAPPAP, the IC50 (HLA-B*07:02; [19]) is reported as no less than 145 µM.
